Values of other authors as cited in publication PMC10019135.

Molecular target: IL-2Rβ/γc heterodimer (Homo sapiens) (UniProt P14784)
Chain of UniProt P14784 (P14784 27-240, chain 1 of 2): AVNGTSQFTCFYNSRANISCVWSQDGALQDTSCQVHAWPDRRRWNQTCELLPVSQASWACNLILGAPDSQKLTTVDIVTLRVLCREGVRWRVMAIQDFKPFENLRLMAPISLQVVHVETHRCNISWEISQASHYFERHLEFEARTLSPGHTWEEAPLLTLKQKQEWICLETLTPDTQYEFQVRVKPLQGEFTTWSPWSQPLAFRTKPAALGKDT
Chain of UniProt P14784 (P31785 23-262, chain 2 of 2, further chain): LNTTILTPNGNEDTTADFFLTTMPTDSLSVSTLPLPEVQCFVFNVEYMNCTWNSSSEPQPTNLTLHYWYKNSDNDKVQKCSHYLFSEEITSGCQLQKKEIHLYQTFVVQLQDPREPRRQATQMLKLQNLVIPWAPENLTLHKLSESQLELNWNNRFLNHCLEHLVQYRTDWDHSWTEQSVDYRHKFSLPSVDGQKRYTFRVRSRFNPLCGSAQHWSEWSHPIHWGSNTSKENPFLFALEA

Kd: 1 nM
Substance: IL-2 (from UniProt P60568)
